Reference: article PMC3017781, “Structure-function relationships of wheat flavone O-methyltransferase: Homology modeling and site-directed mutagenesis” (BMC Plant Biology, 2010)
Positions count from the first letter of the chain named. Names may count otherwise.

B1: TaOMT2 (Triticum aestivum; V309I) (protein)
chain: MGSIAAGADEDACMYALQLVSSSILPMTLKNAIELGLLETLMAAGGKFLTPAEVAAKLPSAANPEAPDMVDRMLRLLASYNVVSCRTEDGKDGRLSRRYGAAPVCKYLTPNEDGVSMSALALMNQDKVLMESWYYLKDAVLDGGIPFNKAYGMSAFEYHGTDPRFNRVFNEGMKNHSIIITKKLLESYKGFEGLGTLVDVGGGVGATVAAITAHYPTIKGINFDLPHVISEAPPFPGVTHVGGDMFQKVPSGDAILMKWILHDWSDEHCATLLKNCYDALPAHGKVVLVECILPVNPEATPKAQGVFHIDMIMLAHNPGGRERYEREFEALAKGAGFAAMKTTYIYANAWAIEFTK
notes: full length, 356 residues, vector pET200/D-TOPO, expressed in E. coli BL21 (DE3), Ni-NTA purified, tag removal not mentioned; dimer in solution (monomers also active)
B2: TaOMT2 (Triticum aestivum) (protein)
chain: B1 chain with I309V
notes: as for B1
B3: TaOMT2 (Triticum aestivum; W259A) (protein)
chain: B1 chain with W259A, I309V
B4: TaOMT2 (Triticum aestivum; E322I) (protein)
chain: B1 chain with I309V, E322I
B5: TaOMT2 (Triticum aestivum; G305S) (protein)
chain: B1 chain with G305S, I309V
B6: TaOMT2 (Triticum aestivum; D263N) (protein)
chain: B1 chain with D263N, I309V
B7: TaOMT2 (Triticum aestivum; W259Y) (protein)
chain: B1 chain with W259Y, I309V

Substrate: COc1cc(/C=C/C(=O)O)cc(O)c1O
Test: radiometric methyltransferase assay with [3H]SAM, Lineweaver-Burk
Format: biochemical, Triticum aestivum
Details: co-substrate SAM (AdoMet) 1 mM, 30°C, 15 min
Description: radiometric methyltransferase assay with [3H]SAM, Lineweaver-Burk on TaOMT2

Row | Protein | Km
1 | B1 | 18.24 ± 1.72 µM
2 | B2 | 270.98 ± 11.51 µM

Substrate: O=c1cc(-c2cc(O)c(O)c(O)c2)oc2cc(O)cc(O)c12
Test: purified protein
Details: co-substrate SAM (AdoMet) 1 mM, 30°C, 15 min

Row | Protein | Km
3 | B1 | 101.08 ± 9.68 µM
4 | B2 | 59.51 ± 0.79 µM

Same assay, conditions: co-substrate SAM, saturating

Row | Protein | Km
5 | B3 | 131.0 µM
6 | B4 | 193.17 µM
7 | B5 | 118.41 µM
8 | B6 | 128.2 µM
9 | B7 | 170.1 µM
